Laboratory results reported in US20220033501A1.

Columns and labels:
[1] = molecular target: monkey TIM-3 extracellular domain protein with hFc tag (cTIM-3-hFc) (monkey); experiment: ELISA, coated monkey TIM-3 ECD protein, 0 nM antibody
[2] = molecular target: human TIM-3 on CHOK1 stable cell line (CHOK1-hTIM-3) (human) (UniProt Q8TDQ0); experiment: FACS, CHOK1-hTIM-3 cells, 0.013 nM antibody
[3] = molecular target: human TIM-3 on CHOK1 stable cell line (CHOK1-hTIM-3) (human) (UniProt Q8TDQ0); experiment: FACS, CHOK1-hTIM-3 cells, 40 nM antibody
[4] = molecular target: monkey TIM-3 on CHOK1 stable cell line (CHOK1-cTIM-3) (monkey); experiment: FACS, CHOK1-cTIM-3 cells, 8 nM antibody
[5] = molecular target: human TIM-3 extracellular domain protein with hFc tag (hTIM-3-hFc) (human) (UniProt Q8TDQ0); experiment: FACS, blocking of hTIM-3-hFc binding to phosphatidylserine on apoptotic Jurkat cells, 22.222 nM antibody
[6] = molecular target: monkey TIM-3 on CHOK1 stable cell line (CHOK1-cTIM-3) (monkey); experiment: FACS, CHOK1-cTIM-3 cells, 0.32 nM antibody
[7] = molecular target: murine TIM-3 extracellular domain protein with hFc tag (mTIM-3-hFc) (mouse) (UniProt Q8VIM0); experiment: ELISA, coated mouse TIM-3 ECD protein, 0 nM antibody
[8] = molecular target: human TIM-3 extracellular domain protein with hFc tag (hTIM-3-hFc) (human) (UniProt Q8TDQ0); experiment: FACS, blocking of hTIM-3-hFc binding to phosphatidylserine on apoptotic Jurkat cells, 0.274 nM antibody
[9] = molecular target: murine TIM-3 extracellular domain protein with hFc tag (mTIM-3-hFc) (mouse) (UniProt Q8VIM0); experiment: ELISA, coated mouse TIM-3 ECD protein, 0.6667 nM antibody
[10] = molecular target: human TIM-3 extracellular domain protein with hFc tag (hTIM-3-hFc) (human) (UniProt Q8TDQ0); experiment: ELISA, coated human TIM-3 ECD protein, 0 nM antibody
[11] = molecular target: monkey TIM-3 extracellular domain protein with hFc tag (cTIM-3-hFc) (monkey); experiment: ELISA, coated monkey TIM-3 ECD protein, 0.0667 nM antibody
[12] = molecular target: human TIM-3 on CHOK1 stable cell line (CHOK1-hTIM-3) (human) (UniProt Q8TDQ0); experiment: FACS, CHOK1-hTIM-3 cells, 1.6 nM antibody
[13] = molecular target: human TIM-3 on CHOK1 stable cell line (CHOK1-hTIM-3) (human) (UniProt Q8TDQ0); experiment: FACS, CHOK1-hTIM-3 cells, 0.064 nM antibody
[14] = molecular target: human TIM-3 on CHOK1 stable cell line (CHOK1-hTIM-3) (human) (UniProt Q8TDQ0); experiment: FACS, CHOK1-hTIM-3 cells, 8 nM antibody
[15] = molecular target: murine TIM-3 extracellular domain protein with hFc tag (mTIM-3-hFc) (mouse) (UniProt Q8VIM0); experiment: ELISA, coated mouse TIM-3 ECD protein, 6.6667 nM antibody
[16] = molecular target: human TIM-3 extracellular domain protein with hFc tag (hTIM-3-hFc) (human) (UniProt Q8TDQ0); experiment: ELISA, coated human TIM-3 ECD protein, 66.667 nM antibody
[17] = molecular target: human TIM-3 extracellular domain protein with hFc tag (hTIM-3-hFc) (human) (UniProt Q8TDQ0); experiment: FACS, blocking of hTIM-3-hFc binding to phosphatidylserine on apoptotic Jurkat cells, 200 nM antibody
[18] = molecular target: monkey TIM-3 on CHOK1 stable cell line (CHOK1-cTIM-3) (monkey); experiment: FACS, CHOK1-cTIM-3 cells, 1.6 nM antibody

Chain of human TIM-3 extracellular domain protein with hFc tag (hTIM-3-hFc) (human) (Q8TDQ0 22-200): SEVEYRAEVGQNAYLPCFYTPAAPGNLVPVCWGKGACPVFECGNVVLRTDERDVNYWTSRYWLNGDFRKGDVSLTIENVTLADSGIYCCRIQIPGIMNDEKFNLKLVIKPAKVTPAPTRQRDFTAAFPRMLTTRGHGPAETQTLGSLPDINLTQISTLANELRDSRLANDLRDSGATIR
Chain of monkey TIM-3 on CHOK1 stable cell line (CHOK1-cTIM-3) (monkey) (chain, as listed by the source limits assumed): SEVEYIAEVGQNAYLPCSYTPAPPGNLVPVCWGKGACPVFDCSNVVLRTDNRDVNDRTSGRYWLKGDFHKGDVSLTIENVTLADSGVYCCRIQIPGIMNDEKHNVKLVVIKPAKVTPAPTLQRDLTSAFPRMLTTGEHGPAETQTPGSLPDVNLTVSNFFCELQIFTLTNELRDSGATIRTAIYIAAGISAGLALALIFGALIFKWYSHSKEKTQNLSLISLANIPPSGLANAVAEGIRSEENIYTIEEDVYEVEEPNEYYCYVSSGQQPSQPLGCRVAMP
Chain of murine TIM-3 extracellular domain protein with hFc tag (mTIM-3-hFc) (mouse) (Q8VIM0 other isoform, or with tags, fused parts or gaps): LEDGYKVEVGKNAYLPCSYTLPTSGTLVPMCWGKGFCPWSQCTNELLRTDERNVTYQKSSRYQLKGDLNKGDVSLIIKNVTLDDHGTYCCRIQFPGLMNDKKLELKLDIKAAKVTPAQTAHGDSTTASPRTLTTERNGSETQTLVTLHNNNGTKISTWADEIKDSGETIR
Chain of human TIM-3 on CHOK1 stable cell line (CHOK1-hTIM-3) (human) (Q8TDQ0 22-301 limits assumed): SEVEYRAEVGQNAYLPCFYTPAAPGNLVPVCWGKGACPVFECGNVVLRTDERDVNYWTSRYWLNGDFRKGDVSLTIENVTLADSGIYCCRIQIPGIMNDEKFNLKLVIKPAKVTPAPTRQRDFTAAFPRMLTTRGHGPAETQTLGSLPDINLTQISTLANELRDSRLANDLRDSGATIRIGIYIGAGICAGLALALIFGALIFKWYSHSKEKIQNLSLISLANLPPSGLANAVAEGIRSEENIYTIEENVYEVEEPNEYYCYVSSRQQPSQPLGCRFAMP
Chain of monkey TIM-3 extracellular domain protein with hFc tag (cTIM-3-hFc) (monkey) (chain, as listed by the source): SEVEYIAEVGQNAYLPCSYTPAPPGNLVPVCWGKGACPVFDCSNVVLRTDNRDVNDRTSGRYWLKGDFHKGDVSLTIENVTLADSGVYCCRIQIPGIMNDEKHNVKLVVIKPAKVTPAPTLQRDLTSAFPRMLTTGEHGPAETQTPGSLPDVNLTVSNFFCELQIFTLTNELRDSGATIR

OD450 [1]: 0.13 | Mean fluorescence intensity [2]: 2.8 | Mean fluorescence intensity [3]: 5 | Mean fluorescence intensity [4]: 3.7 | Inhibition ratio (%) [5]: -2.8% | Mean fluorescence intensity [6]: 3.1 | OD450 [7]: 0.23 | Inhibition ratio (%) [8]: -20% | OD450 [9]: 0.22 | OD450 [10]: 0.07 | OD450 [11]: 0.13 | Mean fluorescence intensity [12]: 3.1 | Mean fluorescence intensity [13]: 2.8 | Mean fluorescence intensity [14]: 4.5 | OD450 [15]: 0.3 | OD450 [16]: 0.14 | Inhibition ratio (%) [17]: -7.8% | Mean fluorescence intensity [18]: 3.2
Substance: human IgG control (antibody)
